Results reported in the supplement of paper PMC9170038.

Test system: MS2 coat protein
Assay: apparent KD of MS2 coat protein; designed switch direction (-1 OFF switch, 1 ON switch): -1; higher = weaker reporter binding
How it was run: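 Stalled E. coli RNA polymerase transcribed designed RNA switches on Illumina chips, which were then titrated with SNAP-549-labelled MS2 coat protein, doubling from 0.7 or 1.5 nM to 3 µM. Steps lasted from 0.8–1.5 h at the lowest concentration to 10–20 min at the highest. The apparent KD is each design's median over clusters of curve-fitted normalised fluorescence.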

[1] = Eterna round: R95, input ligand: microRNA oligo, concentration not stated
[2] = Eterna round: R95, input ligand: FMN 200 uM
[3] = Eterna round: R95, input ligand: none
[4] = input ligand: microRNA oligo, concentration not stated

Row | Sequence | apparent KD of MS2 coat protein [1] [nM] | apparent KD of MS2 coat protein (input ligand: FMN 200 uM) [nM] | apparent KD of MS2 coat protein (input ligand: none) [nM] | apparent KD of MS2 coat protein [2] [nM] | apparent KD of MS2 coat protein [3] [nM] | apparent KD of MS2 coat protein [4] [nM]
1 | AAUUUACAUGAGGAUCACCCAUGUCAGGAUAUGGUUUUAUUUUUUUCUUUUCUUGAUUCCAGAAGGGACAGCUA (puzzle: Exclusion 1) | 82.2 | – | – | – | – | –
2 | GUCUCACAUGAGGAUCACCCAUGUGAGGAUAUGGUUUCGCUGGCCGUAGCCAGUGGAACCAGAAGGCGCGUGAU [Mat - Exclusion 1 - JL Mod - D18] (Eterna round: R97, puzzle: Exclusion 1) | – | 71.1 | 65 | – | – | –
3 | GCGAGAUGAGGAUAUUAGUGGAAUGACAUGAGGAUCACCCAUGUUACGCAUGUCGAGCUUUGAGAAGGCAUUACGA [Eternabot (L2) Solution 75] (Eterna round: R97, puzzle: Exclusion 5) | – | 26.2 | 31.3 | – | – | –
4 | UCAAGUAUGUAGGAUAUCGAUGUCGAAAGACAUCGAGAAGGACGUACAUGAGGAUCACCCAUGUAACUUGCAUG [Exclusion 6 - B - 10:f] (puzzle: Exclusion 6) | 44.6 | – | – | 32.2 | 42.3 | –
5 | AGUACUAACACGUAUGUGUUAGUACAAUAAGCUUGUGAAACAUGAGGAUCACCCAUGUCCUCAUAAGCUCGUCUUAU [salish99_TOv2_r3_066] (puzzle: Sensor v3, turn-off variant 2) | 764 | – | – | 18.1 | 15 | –
6 | AUUAUAUAGUAAGGAUAUUGAUUAUUAUUUUAACAUGAGGAUCACCCAUGUAGCCUUAUGUAUAACAAGAAGGUACAUUUAUUA [Title] (Eterna round: R96, puzzle: Exclusion NG 2) | – | – | – | – | – | 44.5
7 | AAUCCUGAAGUUAGGAUAUGAAGUAUCACUACACUUCAGAAGGAACUUGAGGAUCACCCAAGUAGCCGUGAGGC [jl-bmx4.4.63 ViennaUCT mod] (Eterna round: R97, puzzle: Brourd's mod of Exclusion 4) | – | 96 | 20.3 | – | – | –
8 | ACGAAAGCAAGCAAGUGAAACAUGAGGAUCACCCAUGUCCUCAUUUGCUCGUCUUAUAAAAGCUAUCGAAAGAUAGC [Mat - Sensor v3 - turn-off var 1 - Eli Mod - D47] (puzzle: Sensor v3, turn-off variant 1) | 157 | – | – | 11.9 | 13.2 | –
9 | AACUCACAUGAGGAUCACCCAUGUGAGGAUAUGGAUUCGCUGGCCGUAGCCAGUGGAUCCAGAAGGCGCGUGAU [JL-ex1-4.26] (Eterna round: R97, puzzle: Exclusion 1) | – | 56.7 | 56.9 | – | – | –
10 | AGGACAUCAGGCGGCAUGUACAUGAGGAUCACCCAUGUCCUAGAAAGCUGUAUGCUCGUCUUAGGCCCAACCUCGCU [Eternabot (Original) Solution 13] (Eterna round: R97, puzzle: Sensor, turn-off variant 1) | – | 65.1 | 61 | – | – | –
11 | UACAGUCAUCCUUGUUGUUACAUGAGGAUCACCCAUGUUAGUAUAGUUAAGUUAUGUGAGUUUGUUGUUCGUUUUAU [JR_STOV1_v2_Sub077] (Eterna round: R97, puzzle: Sensor, turn-off variant 1) | – | 149 | 169 | – | – | –
12 | AGGAUGUGAGGAUAUCCAUCCCGCGAAUACGGGUAAUAAAUGGAGAAGGCACAUGAGGAUCACCCAUGUGAUGA [Ceersois] (Eterna round: R97, puzzle: Exclusion 4) | – | 262 | 54.1 | – | – | –
13 | CCCAGUUAGGAAGGAUAUUGUACAUGAGGAUCACCCAUGUAAUAAAUGAGGAUUUCGGGUGUCUACAAGAAGGUCCGGAUAGGC [Ostracism 13 - Jieux - Exclusion NG 2] (Eterna round: R96, puzzle: Exclusion NG 2) | – | 110 | 59.4 | – | – | 39.2
14 | AUCCGGCGUGUAGGAUAUGGUUCCGUUUCGGUUCCAGAAGGACAUGAGGAUCACCCAUGUGCCUGUCGUCGGUCGUCACCGGGC [salish99_ExNG1_r04_218] (Eterna round: R96, puzzle: Exclusion NG 1) | – | 43.7 | 16.5 | – | – | 13.4
15 | GAUAUCUCAGGAUAUACAUGCCCUCCGAAACGGAGUCAUGAACAUGAGGAUCACCCAUGUAGAAGGGAGAUAUC [Alacar 2] (Eterna round: R97, puzzle: Exclusion 2) | – | 25.5 | 15.8 | – | – | –
16 | UGAAGGCGAGGAUAUACUGUAUGGGACAUGAGGAUCACCCAUGUUCUGUGUGUACCCGUCGUAGAAGGCGCGAAGA [EX5 C.9] (Eterna round: R97, puzzle: Exclusion 5) | – | 16 | 14.5 | – | – | –
17 | GAUAUGGUGGAGGAUAUCAUUUUGGAACCAAAGUGAGAAGGCUAAACAUGAGGAUCACCCAUGUGAAGCAAGGG [Eternabot (Original) Solution 41] (Eterna round: R97, puzzle: Exclusion 6) | – | 23.3 | 20.4 | – | – | –
18 | CAGCUGAAAGUCAGGAUAUCUAGAGCUUCGGCUCUAGAGAAGGGACAUGAGGAUCACCCAUGUCACUCCAGCUG [BmEx4/3-A1] (Eterna round: R97, puzzle: Brourd's mod of Exclusion 4) | – | 18.9 | 18.2 | – | – | –

Row | Sequence | apparent KD of MS2 coat protein [1] [nM] | apparent KD of MS2 coat protein (input ligand: FMN 200 uM) [nM] | apparent KD of MS2 coat protein (input ligand: none) [nM] | apparent KD of MS2 coat protein [2] [nM] | apparent KD of MS2 coat protein [3] [nM] | apparent KD of MS2 coat protein [4] [nM]
19 | AACCAGCGAGGAUAUGCUUGCGCGUGUUCUAGUUGAAAUCGACUUGAGGAUCACCCAAGUAGAAGGCGCAGCCG [EX2 #48] (Eterna round: R97, puzzle: Exclusion 2) | – | 83.9 | 43.9 | – | – | –
20 | GAGUGACAUGAGGAUCACCCAUGUGAGGAUAUCGGACGGACCAAAUUAACAAUAAAAGCGAGAAGGCACAUCGG [Exclusion 1 V12] (puzzle: Exclusion 1) | 57.6 | – | – | 64.7 | 66.5 | –
21 | AAUAACAGAGGAUAUACUGUUUUAUGUGUUUGUUAUUUUAAACAUGAGGAUCACCCAUGUAGAAGGCUGAAUGA [JMF 57] (puzzle: Exclusion 2) | 22 | – | – | – | – | –
22 | AUCAUGUAAGGAUAUCUGACAAGUGACGAAAGUCACAGUUCAGAGAAGGUACAUGAGGAUCACCCAUGUAGAAC [Ex4-3: 42] (puzzle: Exclusion 4) | 51.3 | – | – | 82.4 | 71.6 | –
23 | GAUCUGACAGGAUAUACAUGAGGAUCACCCAUGUGCGAGCUAGCGAAAGCUAGCUCAGGUAGAAGGGUCAGAUC [Ex3 dot plot directed] (Eterna round: R96, puzzle: Exclusion 3) | – | 15.1 | 15.7 | – | – | 13.1
24 | UCCUCACCUUAGGAUAUCUUGACGGGACUCUCAGGAGAAGGAAGGACAUGAGGAUCACCCAUGUUCAAAACAAC [EX6 B.18] (Eterna round: R97, puzzle: Exclusion 6) | – | 50.2 | 23.2 | – | – | –
25 | GAUUUAGAGCAGGAUAUCAUAGAAAUGUAUGAAUGAGAAGGGCUCACAUGAGGAUCACCCAUGUGGUCCUAGAU [JL Dibiri mod 20] (puzzle: Exclusion 6) | 23.5 | – | – | 144 | 20.3 | –
26 | GUCAUCAAUCAUGGGAUAAACAUGAGGAUCACCCAUGUAUACAAGUUUUUUGCUCGUCUUAUAAUAAGAUUGAUGAC [Antenna 5 - Jieux - Sensor, turn-off variant 1] (Eterna round: R97, puzzle: Sensor, turn-off variant 1) | – | 13.7 | 15.9 | – | – | –
27 | UCCAACCCUGUGAGGAUAUCGUCCAUUUUUUGUUCCGAGAAGGCACAUGAGGAUCACCCAUGUUUUUUAUUUUU [JR_BMOE4_Sub078] (puzzle: Brourd's mod of Exclusion 4) | 34.9 | – | – | – | – | –
28 | CCAACCAGAGGAUAUGCGAAUAAAUAAAACUUUUUUUUUUAACAUGAGGAUCACCCAUGUAGAAGGCUGCAACC [Ex2 #39] (Eterna round: R97, puzzle: Exclusion 2) | – | 32 | 34.8 | – | – | –
29 | AGGAUGUUAGGAUAUCGGAGAUGCGGGAGGAGGUGGAGGUACGAGAAGGAACAUGAGGAUCACCCAUGUGGAAG [JR_Exclu4_Sub045] (puzzle: Exclusion 4) | 18.4 | – | – | – | – | –
30 | GUGUACGGAGGAUAUGCUGGAAUCUAGCGAAGCUAGGUUCCACAUGAGGAUCACCCAUGUAGAAGGUCGUACAC [Dot plot directed A v8] (puzzle: Exclusion 2) | 29.6 | – | – | – | – | –
31 | GGACAGGGAGGAUAUACUUGAGGAUCACCCAAGUCGUAUAAUCGAUGAUCACGCCGAAGUAGAAGGCCCAAAAC [EX3 #82] (Eterna round: R97, puzzle: Exclusion 3) | – | 36.1 | 353 | – | – | –
32 | AGUACUAACACGAGAGUGUUAGUACAAUAAGCUUGUGGAACAUGAGGAUCACCCAUGUCCUCAUAAGCUCGUCUUAU [Mat - Sensor v3 - Turn-off var 2 - D99] (puzzle: Sensor v3, turn-off variant 2) | 70.3 | – | – | 15.2 | 13.4 | –
33 | ACAUGAGGAUCACCCAUGUCCGGCUGGUCUGUUCCGGUUGUCGAGGAUAUAGUUCGGUGUUCGCGCUAGAAGGUGGGAGCUGGG [Aenatbe mod 55] (Eterna round: R96, puzzle: Exclusion NG 3) | – | 308 | 190 | – | – | 163
34 | AUAUGUAACUAGGAUAUCAGCAUACUUCAAUGUUGAGAAGGAGUUACAUGAGGAUCACCCAUGUAUCCAACAUG [Exclusion 6 - 3] (puzzle: Exclusion 6) | 44.1 | – | – | – | – | –
35 | UGAGUGCUGCGAGGAUAUACAUGAGGAUCACCCAUGUAAUAGUGUGAGGCUUUGCCUCACACAAUGUAGAAGGCGCAGUACUCU [JL ENG2 1.02] (Eterna round: R96, puzzle: Exclusion NG 2) | – | 17.1 | 12.5 | – | – | 8.58
